Target: 30 kDa ragweed complete pollen extract disulfide protein allergen (Ambrosia trifida (giant ragweed))
Assay: Concanavalin A affinity chromatography

Substance: Concanavalin A (from UniProt P02866 30-281)
- percent retained on affinity column: > 90%

From patent US20030170763A1
